Values quoted from earlier work, collected in patent publication US20120082669A1, “HUMAN EPO MIMETIC HINGE CORE MIMETIBODIES, COMPOSITIONS, METHODS AND USES FOR PREVENTING OR TREATING GLUCOSE INTOLERANCE RELATED CONDITIONS OR RENAL DISEASE ASSOCIATED ANEMIA” (priority 2006, published 2012).

Assays:
[1] = cited from earlier work
[2] = tested on: patients with end-stage renal disease; settings: patients with end-stage renal disease treated with EPO; cited from earlier work
EPO receptor [3] = target: T1, EPO receptor (Homo sapiens, UniProt P19235); settings: cited from earlier work
T1 sequence (P19235 25-508): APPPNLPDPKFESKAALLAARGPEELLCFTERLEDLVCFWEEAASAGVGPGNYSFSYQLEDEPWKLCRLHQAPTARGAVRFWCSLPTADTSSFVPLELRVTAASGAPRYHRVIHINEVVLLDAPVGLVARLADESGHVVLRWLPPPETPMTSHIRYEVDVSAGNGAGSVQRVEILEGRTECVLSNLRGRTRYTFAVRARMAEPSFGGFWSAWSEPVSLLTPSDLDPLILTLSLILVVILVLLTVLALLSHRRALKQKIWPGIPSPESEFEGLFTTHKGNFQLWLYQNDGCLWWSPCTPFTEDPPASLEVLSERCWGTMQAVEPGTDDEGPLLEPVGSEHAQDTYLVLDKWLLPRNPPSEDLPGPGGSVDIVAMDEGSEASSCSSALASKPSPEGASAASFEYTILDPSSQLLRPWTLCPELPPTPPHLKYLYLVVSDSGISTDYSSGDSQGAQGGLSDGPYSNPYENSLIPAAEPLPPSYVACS

EPO receptor [4] = target: T1, EPO receptor; settings: relative to HuEPO; cited from earlier work
[5] = serum; cited from earlier work

Row | Substance | time to peak serum levels ([1]; after subcutaneous administration) | circulating half-life ([1]; intravenously administered, patients with CRF) | time detectable levels of plasma erythropoietin are maintained ([1]; within the therapeutic dose range) | blood triglyceride, total cholesterol and LDL levels [2] | insulin resistance [2] | competition with 125I-labeled EPO for binding to the EPO receptor (EPO receptor [3]) | activity, fold less than HuEPO (EPO receptor [4]) | ex-vivo half-life [5]
1 | Erythropoietin: glycoprotein hormone of 165 amino acids and four carbohydrate chains, primary regulator of erythropoiesis | 5 to 24 h | 3 to 4 h | at least 24 hours | concomitant improvement | improve insulin resistance | – | – | –
2 | GGTYSCHFGPLTWVCKPQGG [EMP-1] | – | – | – | – | – | competes | 10,000 to 100,000 fold | 8 h
